Consider 2 molecules from article PMC2851570, “Distinct Roles of Hand2 in Initiating Polarity and Posterior Shh Expression during the Onset of Mouse Limb Bud Development” (PLoS Genetics, 2010).

Experiment [1] deals with Hoxd13 (expressed in transfected cells) (UniProt P70217).
In experiment [2] the target is Hoxd13 (expressed in transfected cells) (UniProt P70217 1-339). Description: cell-based or functional assay.
Sequence of Hoxd13 (expressed in transfected cells) (UniProt P70217 1-339) (P70217 whole entry): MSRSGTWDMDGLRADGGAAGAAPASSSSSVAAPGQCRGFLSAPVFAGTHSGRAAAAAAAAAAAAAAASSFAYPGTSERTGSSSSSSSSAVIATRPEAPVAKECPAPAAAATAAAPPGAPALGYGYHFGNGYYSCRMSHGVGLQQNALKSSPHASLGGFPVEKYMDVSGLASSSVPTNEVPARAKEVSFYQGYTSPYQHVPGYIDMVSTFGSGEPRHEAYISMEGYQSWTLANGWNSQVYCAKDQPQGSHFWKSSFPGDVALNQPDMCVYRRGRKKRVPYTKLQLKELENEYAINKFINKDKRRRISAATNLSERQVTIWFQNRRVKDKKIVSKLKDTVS

Sequence of Hoxd13 (expressed in transfected cells) (UniProt P70217) (P70217 whole entry): as above

“Gli3 repressor isoform (Gli3R), Myc-epitope tagged (domain or fragment)”: the repression by co-expressed Gli3R of Hand2-Hoxd13 mediated transactivation of the ZRS-Luc reporter in NIH3T3 cells in experiment [1] turned out to be 50%.

B1: Hand2, Flag-epitope tagged (natural protein, UniProt Q61039 1-217, looked up)
chain: MSLVGGFPHHPVVHHEGYPFAAAAAAAAAAAASRCSHEENPYFHGWLIGHPEMSPPDYSMALSYSPEYASGAAGLDHSHYGGVPPGAGPPGLGGPRPVKRRGTANRKERRRTQSINSAFAELRECIPNVPADTKLSKIKTLRLATSYIAYLMDLLAKDDQNGEAEAFKAEIKKTDVKEEKRKKELNEILKSTVSSNDKKTKGRTGWPQHVWALELKQ
Take B1: the “luciferase activity of the ZRS-Luc reporter in NIH3T3 cells on co-transfection of Hand2 and Hoxd13 (basal activity set to 1; Hand2 alone ∼3-fold, Hoxd13 alone ∼6.5-fold)” value in experiment [2] was roughly 10.5 fold.
